From patent CN111875704A (BAI XIANHONG, dated 2020)

B1: 24H7 全长抗体 (full-length anti-EGFR antibody, IgG1/kappa) (antibody, V domains shown)
VH: QVQLQQPGAELVKPGASVKLSCKASGYTFTNYYIYWFKQRPGQGLEWIGGINPTSGGSNFNEKFKTKATLTVDESSTTAYMQLSSLTSEDSAVYYCTRQGLWFDSDGRGFDFWGQGTTLTVSS
VL: DVLMTQIPLSLPVSLGDQASISCRSSQNIVHSNGNTYLDWYLQKPGQSPNLLIYKVSNRFSGVPDRFRGSGSGTDFTLKISRVEAEDLGVYYCFQYSHVPWTFGGGTKLEIKR
notes: also called 全长24H7抗体
B2: 24H7 scFv (单克隆scFv噬菌体抗体) (scFv)
scFv: QVQLQQPGAELVKPGASVKLSCKASGYTFTNYYIYWFKQRPGQGLEWIGGINPTSGGSNFNEKFKTKATLTVDESSTTAYMQLSSLTSEDSAVYYCTRQGLWFDSDGRGFDFWGQGTTLTVSSGGGGSGGGGSGGGGSDVLMTQIPLSLPVSLGDQASISCRSSQNIVHSNGNTYLDWYLQKPGQSPNLLIYKVSNRFSGVPDRFRGSGSGTDFTLKISRVEAEDLGVYYCFQYSHVPWTFGGGTKLEIKRGQAGQHHHHHH
notes: The phage coat protein fusion is not described

What was measured:
[1] = target: T1, 带有His6标签的EGFR胞外区蛋白 (EGFR extracellular domain with His6 tag) (UniProt P00533 25-645, limits assumed); test: SPR, BIACORE X100 PLUS; ratio of KD against the reference mR3
T1 construct: extracellular domain; also called EGFR保外区蛋白; 抗原; not shown: His6 tag

[2] = target: T1, 带有His6标签的EGFR胞外区蛋白 (EGFR extracellular …); test: monoclonal scFv-phage ELISA on coated antigen at 1 μg/ml, Anti-M13 HRP, OD450

Binder | fold improvement of affinity against mR3 [1] | binding result [2]
B1 | 10 倍 | –
B2 | – | binds
